What all share (assay): fluorescence polarisation
Assay [1] concerns the target fluorescein labelled AcrIIC4 (wild type, engineered C-terminal cysteine) (Haemophilus parainfluenzae (prophage)).
The target is the same in assay [2]. This is another data set of the same source.
Assay [3] addresses fluorescein labelled AcrIIC4 F49A (Haemophilus parainfluenzae (prophage)).
Assay [4] concerns the target fluorescein labelled AcrIIC4 R46A (Haemophilus parainfluenzae (prophage)).
In assay [5] the target is fluorescein labelled AcrIIC4 (wild type, engineered C-terminal cysteine) (Haemophilus parainfluenzae (prophage)). This is another data set of the same source.
In assay [6] the target is fluorescein labelled AcrIIC4 K56A (Haemophilus parainfluenzae (prophage)).

Read-outs that look alike come from different tables or passages of the source.

B1: Nme1Cas9 (N-terminal 6His-tag) (natural protein)
chain: MAAFKPNSINYILGLDIGIASVGWAMVEIDEEENPIRLIDLGVRVFERAEVPKTGDSLAMARRLARSVRRLTRRRAHRLLRTRRLLKREGVLQAANFDENGLIKSLPNTPWQLRAAALDRKLTPLEWSAVLLHLIKHRGYLSQRKNEGETADKELGALLKGVAGNAHALQTGDFRTPAELALNKFEKESGHIRNQRSDYSHTFSRKDLQAELILLFEKQKEFGNPHVSGGLKEGIETLLMTQRPALSGDAVQKMLGHCTFEPAEPKAAKNTYTAERFIWLTKLNNLRILEQGSERPLTDTERATLMDEPYRKSKLTYAQARKLLGLEDTAFFKGLRYGKDNAEASTLMEMKAYHAISRALEKEGLKDKKSPLNLSPELQDEIGTAFSLFKTDEDITGRLKDRIQPEILEALLKHISFDKFVQISLKALRRIVPLMEQGKRYDEACAEIYGDHYGKKNTEEKIYLPPIPADEIRNPVVLRALSQARKVINGVVRRYGSPARIHIETAREVGKSFKDRKEIEKRQEENRKDREKAAAKFREYFPNFVGEPKSKDILKLRLYEQQHGKCLYSGKEINLGRLNEKGYVEIDHALPFSRTWDDSFNNKVLVLGSENQNKGNQTPYEYFNGKDNSREWQEFKARVETSRFPRSKKQRILLQKFDEDGFKERNLNDTRYVNRFLCQFVADRMRLTGKGKKRVFASNGQITNLLRGFWGLRKVRAENDRHHALDAVVVACSTVAMQQKITRFVRYKEMNAFDGKTIDKETGEVLHQKTHFPQPWEFFAQEVMIRVFGKPDGKPEFEEADTLEKLRTLLAEKLSSRPEAVHEYVTPLFVSRAPNRKMSGQGHMETVKSAKRLDEGVSVLRVPLTQLKLKDLEKMVNREREPKLYEALKARLEAHKDDPAKAFAEPFYKYDKAGNRTQQVKAVRVEQVQKTGVWVRNHNGIADNATMVRVDVFEKGDKYYLVPIYSWQVAKGILPDRAVVQGKDEEDWQLIDDSFNFKFSLHPNDLVEVITKKARMFGYFASCHRGTGNINIRIHDLDHKIGKNGILEGIGVKTALSFQKYQIDELGKEIRPCRLKKRPPVR
The term Kd denotes the free concentration of one partner at which half of the binding sites on the other are occupied at equilibrium, for simple one-to-one binding. Low readings indicate tighter binding, high ones weaker binding. For the molecule B1, the Kd was 7.1 nM in assay [1]; 10.2 nM in assay [2]; 15.3 nM in assay [3]; above 2500 nM in assay [4]; 6.6 nM in assay [5]; 1.4 nM in assay [6].
